Drawing on patent US20240294593A1 (Genentech, published 2024), this text covers Kd, koff and kon for 13 molecules.

First the molecules themselves.
B1: H1_L1.68 (antibody, V domains shown)
VH: EVQLVESGGGLVQPGGSLRLSCAASGFTFSSFGMHWVRQAPGKGLEWVSYISSGSSIIYYADSVKGRFTISRDNAKNSLYLQMNSLRAEDTAVYYCARGGRLVWSPDYWGQGTLVTVSS
VL: DIVMTQSPDSLAVSLGERATINCKSSQSLLNSGNQKNYLTWYQQKPGQPPKLLIYYASTRESGVPDRFTGSGSGTDFTLTISSLQAEDVAVYYCQNDYSYPFTFGSGTKLEIKR
notes: also called VL-W56Y; Kabat 50
B2: H1_L1.69 (antibody, V domains shown)
VH: EVQLVESGGGLVQPGGSLRLSCAASGFTFSSFGMHWVRQAPGKGLEWVSYISSGSSIIYYADSVKGRFTISRDNAKNSLYLQMNSLRAEDTAVYYCARGGRLVWSPDYWGQGTLVTVSS
VL: DIVMTQSPDSLAVSLGERATINCKSSQSLLNSGNQKNYLTWYQQKPGQPPKLLIYIASTRESGVPDRFTGSGSGTDFTLTISSLQAEDVAVYYCQNDYSYPFTFGSGTKLEIKR
notes: also called VL-W56I; Kabat 50
B3: H1_L1.79 (antibody, V domains shown)
VH: EVQLVESGGGLVQPGGSLRLSCAASGFTFSSFGMHWVRQAPGKGLEWVSYISSGSSIIYYADSVKGRFTISRDNAKNSLYLQMNSLRAEDTAVYYCARGGRLVWSPDYWGQGTLVTVSS
VL: DIVMTQSPDSLAVSLGERATINCKSSQSLLNSGNQKNYLTWYQQKPGQPPKLLIYWASQRESGVPDRFTGSGSGTDFTLTISSLQAEDVAVYYCQNDYSYPFTFGSGTKLEIKR
notes: also called VL-T59Q; Kabat 53
B4: H1_L1.77 (antibody, V domains shown)
VH: EVQLVESGGGLVQPGGSLRLSCAASGFTFSSFGMHWVRQAPGKGLEWVSYISSGSSIIYYADSVKGRFTISRDNAKNSLYLQMNSLRAEDTAVYYCARGGRLVWSPDYWGQGTLVTVSS
VL: DIVMTQSPDSLAVSLGERATINCKSSQSLLNSGNQKNYLTWYQQKPGQPPKLLIYWASARESGVPDRFTGSGSGTDFTLTISSLQAEDVAVYYCQNDYSYPFTFGSGTKLEIKR
notes: also called VL-T59A; Kabat 53
B5: H1_L1.78 (antibody, V domains shown)
VH: EVQLVESGGGLVQPGGSLRLSCAASGFTFSSFGMHWVRQAPGKGLEWVSYISSGSSIIYYADSVKGRFTISRDNAKNSLYLQMNSLRAEDTAVYYCARGGRLVWSPDYWGQGTLVTVSS
VL: DIVMTQSPDSLAVSLGERATINCKSSQSLLNSGNQKNYLTWYQQKPGQPPKLLIYWASIRESGVPDRFTGSGSGTDFTLTISSLQAEDVAVYYCQNDYSYPFTFGSGTKLEIKR
notes: also called VL-T59I; Kabat 53
B6: H1_L1.72 (antibody, V domains shown)
VH: EVQLVESGGGLVQPGGSLRLSCAASGFTFSSFGMHWVRQAPGKGLEWVSYISSGSSIIYYADSVKGRFTISRDNAKNSLYLQMNSLRAEDTAVYYCARGGRLVWSPDYWGQGTLVTVSS
VL: DIVMTQSPDSLAVSLGERATINCKSSQSLLNSGNQKNYLTWYQQKPGQPPKLLIYSASTRESGVPDRFTGSGSGTDFTLTISSLQAEDVAVYYCQNDYSYPFTFGSGTKLEIKR
notes: also called VL-W56S; Kabat 50
B7: H1_L1.70 (antibody, V domains shown)
VH: EVQLVESGGGLVQPGGSLRLSCAASGFTFSSFGMHWVRQAPGKGLEWVSYISSGSSIIYYADSVKGRFTISRDNAKNSLYLQMNSLRAEDTAVYYCARGGRLVWSPDYWGQGTLVTVSS
VL: DIVMTQSPDSLAVSLGERATINCKSSQSLLNSGNQKNYLTWYQQKPGQPPKLLIYHASTRESGVPDRFTGSGSGTDFTLTISSLQAEDVAVYYCQNDYSYPFTFGSGTKLEIKR
notes: also called VL-W56H; Kabat 50
B8: H1_L1.80 (antibody, V domains shown)
VH: EVQLVESGGGLVQPGGSLRLSCAASGFTFSSFGMHWVRQAPGKGLEWVSYISSGSSIIYYADSVKGRFTISRDNAKNSLYLQMNSLRAEDTAVYYCARGGRLVWSPDYWGQGTLVTVSS
VL: DIVMTQSPDSLAVSLGERATINCKSSQSLLNSGNQKNYLTWYQQKPGQPPKLLIYWASHRESGVPDRFTGSGSGTDFTLTISSLQAEDVAVYYCQNDYSYPFTFGSGTKLEIKR
notes: also called VL-T59H; Kabat 53
B9: H1_L1.73 (antibody, V domains shown)
VH: EVQLVESGGGLVQPGGSLRLSCAASGFTFSSFGMHWVRQAPGKGLEWVSYISSGSSIIYYADSVKGRFTISRDNAKNSLYLQMNSLRAEDTAVYYCARGGRLVWSPDYWGQGTLVTVSS
VL: DIVMTQSPDSLAVSLGERATINCKSSQSLLNSGNQKNYLTWYQQKPGQPPKLLIYDASTRESGVPDRFTGSGSGTDFTLTISSLQAEDVAVYYCQNDYSYPFTFGSGTKLEIKR
notes: also called VL-W56D; Kabat 50
B10: H1_L1.76 (antibody, V domains shown)
VH: EVQLVESGGGLVQPGGSLRLSCAASGFTFSSFGMHWVRQAPGKGLEWVSYISSGSSIIYYADSVKGRFTISRDNAKNSLYLQMNSLRAEDTAVYYCARGGRLVWSPDYWGQGTLVTVSS
VL: DIVMTQSPDSLAVSLGERATINCKSSQSLLNSGNQKNYLTWYQQKPGQPPKLLIYWASSRESGVPDRFTGSGSGTDFTLTISSLQAEDVAVYYCQNDYSYPFTFGSGTKLEIKR
notes: also called VL-T59S; Kabat 53
B11: H1_L1.74 (antibody, V domains shown)
VH: EVQLVESGGGLVQPGGSLRLSCAASGFTFSSFGMHWVRQAPGKGLEWVSYISSGSSIIYYADSVKGRFTISRDNAKNSLYLQMNSLRAEDTAVYYCARGGRLVWSPDYWGQGTLVTVSS
VL: DIVMTQSPDSLAVSLGERATINCKSSQSLLNSGNQKNYLTWYQQKPGQPPKLLIYRASTRESGVPDRFTGSGSGTDFTLTISSLQAEDVAVYYCQNDYSYPFTFGSGTKLEIKR
notes: also called VL-W56R; Kabat 50
B12: H1_L1.71 (antibody, V domains shown)
VH: EVQLVESGGGLVQPGGSLRLSCAASGFTFSSFGMHWVRQAPGKGLEWVSYISSGSSIIYYADSVKGRFTISRDNAKNSLYLQMNSLRAEDTAVYYCARGGRLVWSPDYWGQGTLVTVSS
VL: DIVMTQSPDSLAVSLGERATINCKSSQSLLNSGNQKNYLTWYQQKPGQPPKLLIYQASTRESGVPDRFTGSGSGTDFTLTISSLQAEDVAVYYCQNDYSYPFTFGSGTKLEIKR
notes: also called VL-W56Q; Kabat 50
B13: H1_L1.75 (antibody, V domains shown)
VH: EVQLVESGGGLVQPGGSLRLSCAASGFTFSSFGMHWVRQAPGKGLEWVSYISSGSSIIYYADSVKGRFTISRDNAKNSLYLQMNSLRAEDTAVYYCARGGRLVWSPDYWGQGTLVTVSS
VL: DIVMTQSPDSLAVSLGERATINCKSSQSLLNSGNQKNYLTWYQQKPGQPPKLLIYWASVRESGVPDRFTGSGSGTDFTLTISSLQAEDVAVYYCQNDYSYPFTFGSGTKLEIKR
notes: also called VL-T59V; Kabat 53

T1 sequence (Q15116 25-167 limits assumed): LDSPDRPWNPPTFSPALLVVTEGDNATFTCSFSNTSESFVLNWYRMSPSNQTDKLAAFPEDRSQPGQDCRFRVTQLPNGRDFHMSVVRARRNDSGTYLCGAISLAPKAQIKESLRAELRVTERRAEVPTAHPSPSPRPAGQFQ

The assay has as its target T1, human PD-1-His (human, UniProt Q15116 25-167, limits assumed).
T1 construct: Antigen of the Octet assays; not shown: His tag
As to the kind of experiment: Octet [D00120 Figure 65H]. An excerpt:
In particular, anti-human IgG-Fc (AHC) biosensors were used to capture the test articles and dipped into multiple concentrations of PD-1.
Molecule B1 came in with a Kd of 178 nM, an off-rate (koff) of 0.0166 s⁻¹ and a kon of 92900 M⁻¹ s⁻¹.
On the same counts, the results for B2 are 25.9 nM, 0.00244 s⁻¹ and 94400 M⁻¹ s⁻¹.
Molecule B3 had a Kd of 55.5 nM, a koff of 0.00731 s⁻¹ and a kon of 132000 M⁻¹ s⁻¹.
With B4, the affinity, expressed as Kd, was 50.3 nM; the off-rate (koff) came out at 0.00535 s⁻¹; the kon worked out at 106000 M⁻¹ s⁻¹.
On the same counts, the results for B5 are 56.8 nM, 0.00581 s⁻¹ and 102000 M⁻¹ s⁻¹.
On the same counts, the results for B6 are 60.3 nM, 0.00348 s⁻¹ and 57700 M⁻¹ s⁻¹.
As to B7, the Kd was found to be 30.9 nM, the koff worked out at 0.00281 s⁻¹ and the kon came to 90700 M⁻¹ s⁻¹.
On to B8, for which binding was characterised by a dissociation constant (Kd) of 51 nM, the koff is 0.00578 s⁻¹ and the kon stood at 113000 M⁻¹ s⁻¹.
Molecule B9 registered a Kd of 51.6 nM, a koff of 0.00455 s⁻¹ and a kon of 88100 M⁻¹ s⁻¹.
For the molecule B10, the dissociation constant Kd stood at 55 nM, the koff is 0.00512 s⁻¹ and the kon worked out at 93100 M⁻¹ s⁻¹.
B11 had a dissociation constant (Kd) of 265 nM, a koff of 0.0244 s⁻¹ and a kon of 92300 M⁻¹ s⁻¹.
Regarding B12, the affinity, expressed as Kd, was 47.1 nM; the koff was found to be 0.0043 s⁻¹; the kon is 91400 M⁻¹ s⁻¹.
B13 came in with a Kd of 45.3 nM, a koff of 0.00496 s⁻¹ and a kon of 110000 M⁻¹ s⁻¹.
